For 84 variants, reverse-splicing fitness results are on record in the RNAGym collection of RNA variant scans (doi:10.1093/molbev/msab373).

B1: Azoarcus group I ribozyme (parent)
chain: GUGCCUUGCGCCGGGAAACCACGCAAGGGAUGGUGUCAAAUUCGGCGAAACCUAAGCGCCCGCCCGGGCGUAUGGCAACGCCGAGCCAAGCUUCGGCGCCUGCGCCGAUGAAGGUGUAGAGACUAGACGGCACCCACCUAAGGCAAACGCUAUGGUGAAGGCAUAGUCCAGGGAGUGGCGAAAGUCACACAAACCGG

The data set covers variants of B1. Nature of the data set: reverse-splicing fitness (ratio to wild type); higher = more active; in vitro selection; Mg2+ level not given. The gist of the method: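 An in vitro group I ribozyme library with randomized positions was T7-transcribed and gel-purified. In triplicate, 10 pmol RNA in EPPS pH 7.5 was reacted with 50 pmoles of a 30-nt RNA substrate for 1 h at 37 °C across several added MgCl2 levels (1–48 mM), then stopped with EDTA. Products were reverse transcribed from a substrate-complementary primer, PCR-amplified and sequenced (HiSeq 4000). Fitness is a variant's read proportion after selection over that before, normalised to wild type.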
For C82G A111U A120U C150U C169G U176A, the reverse-splicing fitness is 0.00881.

In the case of A111G A120G A145G C150A C169U, the reverse-splicing fitness came to 0.0458.

C82U A120U C150U C169U U176G: the reverse-splicing fitness is 0.00209.

For the variant A111C A120U A145G C150G C169A U176G, the reverse-splicing fitness is 0.00554.

C82U A111C A120U A145G C169G: the reverse-splicing fitness was determined as 0.0042.

On to C82U A111U A120C C150A U176A, for which the reverse-splicing fitness turned out to be 0.0126.

As to C82A A111G A120U C150U C169G, the reverse-splicing fitness turned out to be 0.00566.

Take C82G A111U A120C A145C U176A: the reverse-splicing fitness is 0.0155.

As to C82U A111C A120C A145U C150A C169A U176G, the reverse-splicing fitness is 0.00614.

On to C82G A111G A120G A145G, for which the reverse-splicing fitness stood at 0.0179.

Take C82G A120G A145U C169A: the reverse-splicing fitness came to 0.0302.

Consider A111U A120G A145C C150U C169G U176C, for which the reverse-splicing fitness stood at 0.0226.

Regarding C82U A111C A120U C150U C169G, the reverse-splicing fitness was determined as 0.00449.

Turning to C82U A111U A120G A145G C150U C169U U176C, the reverse-splicing fitness was determined as 0.014.

Consider A111C A120G A145C C150G C169U U176C, for which the reverse-splicing fitness was found to be 0.013.

Turning to C82A A111G A145G C150G, the reverse-splicing fitness stood at 0.0329.

Regarding C82A A120U A145C C150A C169A U176C, the reverse-splicing fitness was determined as 0.00238.

With C82G A111U A145C C150U C169A U176C, the reverse-splicing fitness was found to be 0.00701.

With C82G A111U A145C C150A C169U U176C, the reverse-splicing fitness worked out at 0.00987.

Consider C82U A120C A145G C169G U176A, for which the reverse-splicing fitness turned out to be 0.0152.

Consider C82U A111C A120C A145U C169G U176G, for which the reverse-splicing fitness was 0.00515.

As for C82U A120C A145G C150U C169A U176G, the reverse-splicing fitness was determined as 0.00464.

For C82U A111G A120G A145C C150A C169U, the reverse-splicing fitness came out at 0.00634.

Turning to C82A A120C A145C C150G, the reverse-splicing fitness came to 0.0192.

For C82G A120C A145C C150G C169A U176A, the reverse-splicing fitness turned out to be 0.0101.

As to A111G A145U C150A C169G, the reverse-splicing fitness amounted to 0.016.

Consider A111G A145G C169U U176G, for which the reverse-splicing fitness came out at 0.00661.

With C82U A111G A120U A145G C150A C169U U176G, the reverse-splicing fitness was found to be 0.00215.

Consider A111G A120U A145U C150U U176G, for which the reverse-splicing fitness was 0.0789.

Regarding C82U U176C, the reverse-splicing fitness worked out at 0.476.

As for A120U A145G C150G C169U U176A, the reverse-splicing fitness came to 0.00909.

On to C82U A120C A145G C150U C169G, for which the reverse-splicing fitness stood at 0.00809.

C82U A111G A120C C150U C169A U176A: the reverse-splicing fitness turned out to be 0.0164.

For C82U A111G A120G C150A C169U U176C, the reverse-splicing fitness is 0.0157.

In the case of C82A A120C A145C C150U C169G U176G, the reverse-splicing fitness amounted to 0.00542.

Consider C82U A111C A120C A145G C150A C169U U176A, for which the reverse-splicing fitness was found to be 0.0176.

C82U C169G U176C: the reverse-splicing fitness is 0.0184.

As for A111U A120U A145U C150U C169G U176A, the reverse-splicing fitness is 0.00542.

For C82U A111G A145G C150A C169A, the reverse-splicing fitness was found to be 0.0102.

As to C82G A111U A145U C150G C169U U176C, the reverse-splicing fitness was found to be 0.0115.

Turning to C82G A111G A120G A145C C150U C169U U176A, the reverse-splicing fitness worked out at 0.0174.

C82G A111U A120G A145U C169G U176A: the reverse-splicing fitness amounted to 0.0119.

In the case of C82U A111C A120G C150G C169A U176C, the reverse-splicing fitness stood at 0.00939.

Regarding C82G A111G A120G A145C C150G C169U U176G, the reverse-splicing fitness came to 0.00615.

As to C82A A111G A120G C150G C169U U176A, the reverse-splicing fitness is 0.0124.

On to C82A A111C A120C C150G C169A U176C, for which the reverse-splicing fitness turned out to be 0.0121.

C82A A120G A145G C150A C169A: the reverse-splicing fitness was 0.0112.

As to A111U A145C C150U C169A U176C, the reverse-splicing fitness was determined as 0.00769.

Turning to C82G A111C A145G C150U C169A U176A, the reverse-splicing fitness came out at 0.0153.

In the case of C82G A111C A120C A145C C150U C169A U176A, the reverse-splicing fitness was 0.0125.

On to A111C A145C C150U C169U U176A, for which the reverse-splicing fitness came to 0.0174.

For C82G A111C A120U A145G C169A U176C, the reverse-splicing fitness is 0.00311.

In the case of C82A A111C A145C C150G U176G, the reverse-splicing fitness is 0.00408.

For C82G A111C A120G A145C C150U C169U U176G, the reverse-splicing fitness was found to be 0.0048.

Regarding C82G A111U A145G C150G U176G, the reverse-splicing fitness was determined as 0.00893.

Consider C82G A111U A120C A145U C169G U176A, for which the reverse-splicing fitness was found to be 0.0154.

On to C82G A120C A145G C169G U176A, for which the reverse-splicing fitness was 0.0164.

Take C82A A111U A120G C150G C169G U176A: the reverse-splicing fitness came out at 0.00798.

Regarding C82G A120U A145U C150G U176C, the reverse-splicing fitness is 0.0112.

Take C82A A111U A145G C150G U176C: the reverse-splicing fitness turned out to be 0.0188.

Turning to C82U A120C A145C C150A C169A U176C, the reverse-splicing fitness was found to be 0.00429.

For C82U A111U A145C C150A, the reverse-splicing fitness stood at 0.0151.

For C82A A111C A120G A145C C169A U176G, the reverse-splicing fitness was 0.0044.

With C82U A111G A120U C150U C169A U176G, the reverse-splicing fitness is 0.00203.

Consider C82U A111C A120C A145C C169U U176G, for which the reverse-splicing fitness was determined as 0.00426.

For C82A A111C A120G A145U C169U U176C, the reverse-splicing fitness is 0.0118.

C82A A120U A145G C150U C169G: the reverse-splicing fitness is 0.00684.

Regarding C82U A111C A120U A145C C150A C169A U176C, the reverse-splicing fitness was 0.00295.

With A111C A120U C150G C169U, the reverse-splicing fitness amounted to 0.00955.

As to C82A A111C A120U A145C C150U C169G U176A, the reverse-splicing fitness came out at 0.00406.

C82A A111U A120C C150G C169A U176G: the reverse-splicing fitness was 0.00717.

As for C82G A111U A145C C150G C169G, the reverse-splicing fitness worked out at 0.00784.

Take C82U A111C A120U A145C C150G C169U U176A: the reverse-splicing fitness was 0.00332.

In the case of C82U A145U C150A C169U U176G, the reverse-splicing fitness was determined as 0.00535.

Consider C82A A111G A120G A145G C150A C169A U176C, for which the reverse-splicing fitness is 0.0218.

For C82G A111C A120C A145G C150A C169G U176G, the reverse-splicing fitness turned out to be 0.00768.

As to C82U A120C A145C C150G C169G, the reverse-splicing fitness turned out to be 0.00584.

Consider A111C A145C C150U C169U, for which the reverse-splicing fitness came to 0.032.

Turning to C82G A111U A145U C150U C169U U176G, the reverse-splicing fitness is 0.00609.

As to C82A A145U C150U C169U U176C, the reverse-splicing fitness was determined as 0.0131.

As to A111U A120U A145C C150A C169G U176C, the reverse-splicing fitness was determined as 0.00308.

For C82U A111G A120G A145U C150G C169G U176G, the reverse-splicing fitness amounted to 0.00427.

Turning to C82U A111G A120G A145U C150G C169G U176C, the reverse-splicing fitness amounted to 0.00487.

In the case of C82A A111G A120G A145C C150A C169A U176C, the reverse-splicing fitness is 0.00609.
